{
  "source": "paper PMC7279889",
  "about": "“FMRP promotes RNA localization to neuronal projections through interactions between its RGG domain and G-quadruplex RNA sequences”",
  "key": {"FMRP RGG domain": {"target": "FMRP RGG domain (Mus musculus, UniProt P35922 478-614)", "assay": "fluorescence polarization; 150 mM KCl; FP: 10 mM Tris-HCl (pH not stated), 150 mM KCl or LiCl, 5% glycerol, 10 nM RNA, protein 2 nM-1 uM, 5 min at 25 C, read at 26-27 C", "settings": "protein: recombinant; tags: GST-SBP (N-terminal, pGEX6); label: 3' 6-FAM; G4 intramolecular (folded in KCl)"}, "[1]": {"target": "FMRP KH domains (two KH domains) (Mus musculus, UniProt P35922 222-315)", "assay": "fluorescence polarization; binding never detected; method and salt implied; FP: 10 mM Tris-HCl (pH not stated), 150 mM KCl or LiCl, 5% glycerol, 10 nM RNA, protein 2 nM-1 uM, 5 min at 25 C, read at 26-27 C", "settings": "protein: recombinant; tags: GST-SBP (N-terminal, pGEX6); label: 3' 6-FAM; G4 intramolecular (folded in KCl)"}},
  "data": [
    {"binder": "GGGAGGGAGGGAGGGUA (structured_RNA)", "note": "[rG4]", "values": [
      {"measurement": "Kd", "setting": "FMRP RGG domain", "value": "~30", "unit": "nM"},
      {"measurement": "binding result", "setting": "[1]", "value": "no binding"}
    ]}
  ]
}
